The record followed here is paper PMC8050300, “The role of S-nitrosylation of PFKM in regulation of glycolysis in ovarian cancer cells” (Cell Death & Disease, 2021).

Where “and” joins values, the source holds several entries; their conditions need not be identical. Equal values may be shown once.

The data set deals with the molecule itself. Kind of data set: non-reducing SDS-PAGE with western blot; cell extracts separated by non-reducing SDS-PAGE, blot for PFKM tetramer, dimer and monomer; SKOV3 control and OE-NOS1 cells, SKOV3 and OVCAR3 cells with GSNO (1 mM, 30 min) or PBS, SKOV3-PFKM-KO cells (with or without OE-NOS1) reconstituted with Flag-PFKM-WT or C351S.

B1: Phosphofructokinase (PFKM), endogenous (enzyme, human (endogenous in SKOV3 and OVCAR3), UniProt P08237-1 1-780, looked up)
chain: MTHEEHHAAKTLGIGKAIAVLTSGGDAQGMNAAVRAVVRVGIFTGARVFFVHEGYQGLVDGGDHIKEATWESVSMMLQLGGTVIGSARCKDFREREGRLRAAYNLVKRGITNLCVIGGDGSLTGADTFRSEWSDLLSDLQKAGKITDEEATKSSYLNIVGLVGSIDNDFCGTDMTIGTDSALHRIMEIVDAITTTAQSHQRTFVLEVMGRHCGYLALVTSLSCGADWVFIPECPPDDDWEEHLCRRLSETRTRGSRLNIIIVAEGAIDKNGKPITSEDIKNLVVKRLGYDTRVTVLGHVQRGGTPSAFDRILGSRMGVEAVMALLEGTPDTPACVVSLSGNQAVRLPLMECVQVTKDVTKAMDEKKFDEALKLRGRSFMNNWEVYKLLAHVRPPVSKSGSHTVAVMNVGAPAAGMNAAVRSTVRIGLIQGNRVLVVHDGFEGLAKGQIEEAGWSYVGGWTGQGGSKLGTKRTLPKKSFEQISANITKFNIQGLVIIGGFEAYTGGLELMEGRKQFDELCIPFVVIPATVSNNVPGSDFSVGADTALNTICTTCDRIKQSAAGTKRRVFIIETMGGYCGYLATMAGLAAGADAAYIFEEPFTIRDLQANVEHLVQKMKTTVKRGLVLRNEKCNENYTTDFIFNLYSEEGKGIFDSRKNVLGHMQQGGSPTPFDRNFATKMGAKAMNWMSGKIKESYRNGRIFANTPDSGCVLGMRKRALVFQPVAELKDQTDFEHRIPKEQWWLKLRPILKILAKYEIDLDTSDHAHLEHITRKRSGEAAV
notes: PFKM, muscle isoform of phosphofructokinase 1, human, endogenous in ovarian cancer cells; also called PFK1 (M isoform); source: endogenous, SKOV3 (control, OE-NOS1) and OVCAR3 cell lysate
One may read the stoichiometry N as the number of molecules, sites or subunits per partner or assembly. For B1, the “stoichiometry N” value was 4 and 2.

B2: Flag-tagged WT human PFK1 (M isoform) (enzyme, UniProt P08237-1 1-780, looked up)
chain: MTHEEHHAAKTLGIGKAIAVLTSGGDAQGMNAAVRAVVRVGIFTGARVFFVHEGYQGLVDGGDHIKEATWESVSMMLQLGGTVIGSARCKDFREREGRLRAAYNLVKRGITNLCVIGGDGSLTGADTFRSEWSDLLSDLQKAGKITDEEATKSSYLNIVGLVGSIDNDFCGTDMTIGTDSALHRIMEIVDAITTTAQSHQRTFVLEVMGRHCGYLALVTSLSCGADWVFIPECPPDDDWEEHLCRRLSETRTRGSRLNIIIVAEGAIDKNGKPITSEDIKNLVVKRLGYDTRVTVLGHVQRGGTPSAFDRILGSRMGVEAVMALLEGTPDTPACVVSLSGNQAVRLPLMECVQVTKDVTKAMDEKKFDEALKLRGRSFMNNWEVYKLLAHVRPPVSKSGSHTVAVMNVGAPAAGMNAAVRSTVRIGLIQGNRVLVVHDGFEGLAKGQIEEAGWSYVGGWTGQGGSKLGTKRTLPKKSFEQISANITKFNIQGLVIIGGFEAYTGGLELMEGRKQFDELCIPFVVIPATVSNNVPGSDFSVGADTALNTICTTCDRIKQSAAGTKRRVFIIETMGGYCGYLATMAGLAAGADAAYIFEEPFTIRDLQANVEHLVQKMKTTVKRGLVLRNEKCNENYTTDFIFNLYSEEGKGIFDSRKNVLGHMQQGGSPTPFDRNFATKMGAKAMNWMSGKIKESYRNGRIFANTPDSGCVLGMRKRALVFQPVAELKDQTDFEHRIPKEQWWLKLRPILKILAKYEIDLDTSDHAHLEHITRKRSGEAAV
notes: human PFK1 (M isoform, PFKM) cDNA (ATCC, NCBI NP_000280.1) in the expression vector PCDNA3.1; the vector section is headed 'for ovarian cancer cells expression'; also called Flag-PFKM; Flag-PFKM-WT; source: SKOV3-PFKM-KO cells, transfected, in lysate
B2: the “stoichiometry N” value is 4 and 2.
